In US20230302123A1:

Biological target: ubiquitin-specific protease 7 (USP7/HAUSP), endogenous in human H1299 and HCT116 cells (human) (UniProt Q93009)
Experiment: cell-based or functional assay

UniProt Q93009, sequence (Q93009 whole entry): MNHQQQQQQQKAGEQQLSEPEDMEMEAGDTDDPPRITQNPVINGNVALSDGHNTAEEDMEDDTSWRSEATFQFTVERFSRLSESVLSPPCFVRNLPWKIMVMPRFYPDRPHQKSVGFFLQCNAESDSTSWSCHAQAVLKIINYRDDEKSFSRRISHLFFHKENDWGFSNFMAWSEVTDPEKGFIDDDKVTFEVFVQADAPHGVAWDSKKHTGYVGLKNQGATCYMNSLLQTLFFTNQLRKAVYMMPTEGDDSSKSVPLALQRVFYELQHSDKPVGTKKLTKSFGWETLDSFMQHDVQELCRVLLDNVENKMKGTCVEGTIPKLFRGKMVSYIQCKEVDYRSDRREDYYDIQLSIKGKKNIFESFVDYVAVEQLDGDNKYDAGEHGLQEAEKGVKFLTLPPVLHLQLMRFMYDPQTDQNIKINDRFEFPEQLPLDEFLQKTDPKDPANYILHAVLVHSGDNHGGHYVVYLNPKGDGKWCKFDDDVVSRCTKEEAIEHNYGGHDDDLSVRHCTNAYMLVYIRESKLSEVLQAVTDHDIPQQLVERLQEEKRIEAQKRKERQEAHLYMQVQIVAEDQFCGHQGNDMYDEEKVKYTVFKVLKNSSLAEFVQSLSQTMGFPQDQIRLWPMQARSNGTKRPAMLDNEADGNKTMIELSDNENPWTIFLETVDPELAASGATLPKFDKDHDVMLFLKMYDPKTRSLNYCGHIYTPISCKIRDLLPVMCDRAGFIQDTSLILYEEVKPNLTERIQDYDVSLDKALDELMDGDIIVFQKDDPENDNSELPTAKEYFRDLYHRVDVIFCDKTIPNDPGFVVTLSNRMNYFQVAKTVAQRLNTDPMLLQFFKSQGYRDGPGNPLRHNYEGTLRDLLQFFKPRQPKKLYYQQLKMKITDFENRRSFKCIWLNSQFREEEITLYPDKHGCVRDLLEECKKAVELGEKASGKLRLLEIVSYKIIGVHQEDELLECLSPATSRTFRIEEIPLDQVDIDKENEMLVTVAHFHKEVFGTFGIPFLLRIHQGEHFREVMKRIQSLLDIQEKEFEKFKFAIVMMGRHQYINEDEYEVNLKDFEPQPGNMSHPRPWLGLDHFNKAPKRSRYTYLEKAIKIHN

“DBP-S76A of the virus mutant UBM2 (H5pm4250) (from UniProt P03265 1-529)” showed a USP7 diffusely distributed within the nucleus, 48 h p.i. (immunofluorescence) (% of the UBM2-infected cells) of 45, a partial relocalization of USP7 into ring-like or rosette-shaped replication centers, 48 h p.i. (immunofluorescence) (% of the UBM2-infected cells) of 55 and a relocalization of USP7 into viral replication centers (immunofluorescence) (% of the infected cells) of 100.
